Source: the supplement of paper PMC9170038

Test system: K4 kissing-loop RNA reporter
Assay: apparent KD of K4 kissing-loop reporter; higher = weaker reporter binding
Conditions: Eterna round: R107
Description: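 RNA-MaP round R107: designed RNA switches with theophylline, tryptophan, arginine or FMN aptamers are transcribed on-chip within common flanks. They are titrated with a labelled K4 kissing-loop RNA reporter in RNA-MaP buffer (100 mM Tris pH 7.5, 80 mM KCl, 4 mM MgCl2), without ligand or with the indicated ligand. Median apparent KD per design.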

[1] = input ligand: theophylline 20 uM
[2] = input ligand: tryptophan 2.4 mM
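Note: bound reporter read as fluorescence of individual clusters on recovered sequencing chips by microscopy, with normalized cluster intensities fitted with a binding model.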

| Sequence | apparent KD of K4 kissing-loop reporter (input ligand: FMN 200 uM) [nM] | apparent KD of K4 kissing-loop reporter (input ligand: arginine 13.2 mM) [nM] | apparent KD of K4 kissing-loop reporter (input ligand: none) [nM] | apparent KD of K4 kissing-loop reporter [1] [nM] | apparent KD of K4 kissing-loop reporter [2] [nM] |
| --- | --- | --- | --- | --- | --- |
| AGUAGUUGGGCGGCCGCCACUGGAACAGCUUUGCCAAAGGCAGAGCACUAGAGUGAUGUUCUAGCUAGGACCGGGUCCAACUACA [whbob_SS_Tryp_B_t17] | 588 | 250 | 444 | 252 | 1220 |
| CUUGAUGUGUCGGCCGCCACUGGUAUAGGCGGACUAUAACGACAUGAGUGAUGUUCAUGUUCGUCUAGGACCGGGACACAUUGUA [Tryp B SS t4] | 112 | 97.4 | 104 | 100 | 111 |
| GCGCGCGGCGGAGGAUAUAGCCGGUGAUCCGAGAAAGUGAGUGAUGUUUACGGAGUUGAGGAUAUGUUAGAAGGCCGCCGCGCGC [abcdefghijklmnopqrstuvwx] | 339 | 751 | 1000 | 792 | 789 |
| CUGUACAUCUCGGCCGCCACUGACAUGAGUGAUGUUCAUGUACAUGAGUGAUGUUCAUGUUCGGCCAGGACCGGGAGGUGUGCAG [KL-SSTryp-B2 #analogue #double KL] | 352 | 184 | 274 | 271 | 216 |
| GGACGACAGUCGGCCGCCACUCACAGCCGAGUGAUGUUCGGGAUUGUAGCGGAGUGAUGUUUCGCGAGGACCGGGACUGCAGUCC [Same State Typtophan B GF 27] | 200 | 166 | 184 | 171 | 141 |
| AUAUGCAGGAGAAGGAGCGUCGUUUCAAGUGAUGUUUGCAAGCGAGCUUACUAUAUAAGACGACAGGUAGGUCGCUCCUGCGUAA [#06 K4 Arginine B Exclusion] | 166 | 150 | 155 | 141 | 149 |
| UAAUCACUCGAACUGCAAGUACGAGUGGAACGAGGACCGGUACGGCCGCCACUCGAUAACUUGCAGUGAUGUUGCAAGUAAGAAU [(T)''-(K)'-(T)'-(T1)-(T2)-(K1)-(K2)_Design7] | 60.5 | 52.4 | 57.2 | 52.8 | 121 |
| GUGCGCGGUGCGGCCGCCACUCGCAUGAGAGUGAUGUUCUCGGGACGGACGGAAGUCCGUCAUGUGAGGACCGGGCAUGGCUGCG [#2 Same State - Tryptophan B Attempt #10 (HarryS)] | 894 | 344 | 416 | 497 | 453 |
| GCUACUGCUGAAGGAUAUAUCAAUAGAGUGAUGUUCUAUGUCGGUAGCCCGAAAGGGCUACCGACGAUAGAAGGUCAGCAGUAGC | 113 | 1020 | 723 | 1070 | 983 |
| UGAUACCAGACGGCCGCCACUCCUGCAGUCAAAGACUGCAAAGGAAUAUUCGUCCAGUGAUGUUGGAGGACCGGGUCUGGUAUCU [TrypBX 11 #SwitchBubble #Palindromic #StaticStem] | 974 | 698 | 1210 | 701 | 844 |
| GGGUCUGCGCGAAGGAGCGCCCUGACAGGUUGCUGCCGUGGGCAGUGAUGUUGCUCAGUCCGGCAGGUAGGUCGCGUGCAGACCC | 135 | 161 | 176 | 169 | 160 |
| GUCCAUGUCCUCAUUCGUGCACUGGACACCAAGGAUAUGUUUAUGGACAGAAGGUGGUUGGGUCAGUGAUGUUGAUAUAAUUAGU [theeternabot_exclusion_KL_FMN_A_24] | 208 | 276 | 278 | 406 | 194 |
| AAAGUCGGCUGUGAUACCAGUCAUAUAACAACAUAUCGCAGUGAUGUUGCGAGAUAGGAUGACCCUUGGCAGCACUCAGUACGAU [Same State Theophylline B GF 6] | 349 | 360 | 380 | 331 | 338 |
| AUGGCACCUGCGGCCGCCACUCACUCCGGGCUGCUGGCCAGUGAUGUUGGUACGGCUGCCGGUUAGAGGACCGGGCAGGAGCUAA [Rienisdite] | 88.8 | 103 | 107 | 97.8 | 90.7 |
| GCAACAUUGGUAGGAUAUCAUUCUGAGUGAUGUUCAGGGUUCAGCUAACGAAAGUUAGUUGUACCAUGAGAAGGGCUAAUGUUGC [Omei KL FMN B SS A v5] | 425 | 711 | 967 | 820 | 989 |
| UGGAGUUGACGAAAAGUCAACUCCUGGGAAGGAGCGGACGAAAGUCCAGGUAGGUCGCCCACUACCAGUGAUGUUGGUACUUCAA | 241 | 274 | 271 | 254 | 209 |
| GUCAUGCGUUCAGGAUAUGGACCAAUUUAUAUUGCUUAUGCUGUGCCCUGUAUGGCAGUGAUGUUGCCAGAAGGGAGGGCAUGCA [Erbionvean] | 116 | 88 | 96.6 | 111 | 102 |
| AGUCCUAUGACGGCCGCCACUCCGGUUAUGAUUUGCCAAGUGAUGUUUGGGUAUCAGGCGAGGCGGAGGACCGGGUCGACCUGCC [theeternabot_exclusion_KL_Trp_B_18] | 171 | 139 | 151 | 129 | 152 |
| UGAUACCAGACGGCCGCCACUGCACCAGUCAAUGACUGAGUGUAGUAAUGCUCAGUGAUGUUGAGUAGGACCGGGUCUGGUAUCU [Mod of Eli's TrypBX 8 v1] | 141 | 122 | 128 | 122 | 130 |
| AACUGCUAAGAGGUUAAGCACGUCAUUAUGAAGGAUAUAGAAUUCACUAGAAGGUCAUGUGCCCUGAGUGAUGUUCAGAUAGGCG [theeternabot_sameState_KL_FMN_A_25] | 294 | 229 | 236 | 421 | 336 |
| UUCUACGUGCAAGGAUAUCCAUACGCUGCUAAGCGGGUAGCGAUAUAUGGAGUGAUGUUCCAUGUAGGAGAAGGUGCACUGUCCU [Rieser] | 144 | 295 | 348 | 253 | 242 |

| Sequence | apparent KD of K4 kissing-loop reporter (input ligand: FMN 200 uM) [nM] | apparent KD of K4 kissing-loop reporter (input ligand: arginine 13.2 mM) [nM] | apparent KD of K4 kissing-loop reporter (input ligand: none) [nM] | apparent KD of K4 kissing-loop reporter [1] [nM] | apparent KD of K4 kissing-loop reporter [2] [nM] |
| --- | --- | --- | --- | --- | --- |
| GAGGGCCCUGUAGGAUAUGAGUCUAGUGAUGUUAGGCGGUCCAUGCGCGUGGCGCGUUAUGCCCUUUUAGAAGGACAGGGCUCUC [#2 Exclusion - FMN B Attempt #21 (HarryS)] | 109 | 63 | 82.4 | 83.3 | 84.7 |
| CCGUGGCCGACGGCCGCCACUCUUACCAUCCAGCGGAGUGAUGUUCCGCCCGAGUGAUGUUCGGAGAGGACCGGGUCUGUUGUAA [Exclusion Tryptophan B GF30] | 117 | 103 | 108 | 89.1 | 98.9 |
| AAGUGUGUGGCGGCCGCCACUAGAAUCCAGUGAUGUUGGAGUUAUCAUGUAAAUGAUAAUCAACAUAGGACCGGGCCAUAUAGAA [Same State - Tryptophan B (Freestyle 8)] | 630 | 377 | 701 | 441 | 349 |
| GUAUCGCUAGGAGGAUAUUUCGUUUUUCAUAGCAAUGGCUGUGCGGAGUGAUGUUCCGAUUUACCGGAAGAAGGCCUAGUGAUAC [FMN B 27] | 107 | 165 | 180 | 158 | 161 |
| CCAUCGCUAUUCGAUACCAGUCAGGAGGUCUUUGGCCUCCUAAUGGAGUGAUGUUCCUUAGACCCUUGGCAGCGAAUAGUGAUGG [Theophylline B K4 14] | 630 | 171 | 405 | 448 | 249 |
| UAGUGGUAGACCAGAUCUACCACUAGGGAUACCAGCCUCGGUCGAGGCCCUUGGCAGCCCAGCGGGUCCAGUGAUGUUGGAUGUC [Raanza] | 355 | 256 | 322 | 194 | 295 |
| AGACCCUGGUAGGAUACCAGCGGCAUGCAGUGCGAGAGAGCGUAGUGAUGUUACGAGACCCGCCCUUGGCAGCCUGGGAAUGUGU [theeternabot_exclusion_KL_Theo_B_50] | 90.1 | 67.8 | 79.8 | 75.5 | 72.6 |
| GGAUAGGAUAGAGGAUAUGGCUUAUGCAGAAAUAACUUAUUGUGUAAAUCCAUAGGGAGUGAUGUUCCAGAAGGCUGUCCUAUCG [MatMod 16 - Jieux - Exclusion - FMN B] | 821 | 218 | 235 | 224 | 202 |
| GGUAGCAUGGCGGCCGCCACUACAAGUAGUGACCCAAGUGAUGUUUGGAAGCGGGUCCUAAUUGGUAGGACCGGGCCAUGCUACC | 509 | 502 | 496 | 401 | 566 |
| AUUUAAUUAACUGAUACCAGACUUUUUGUUUUGUAUAUUACUAGUGAUGUUAGUGUUUCUGUCCCUUGGCAGCAGUAUCUACUUA [JR_ExcTheophyB_Sub016] | 197 | 252 | 225 | 298 | 157 |
| CGGAUGUAGUGAUGUUAUAUAAGAAGUAGACGAGGACCGGUACGGCCGCCACUCGAAACGGCUACUAGCGCGUUGCGAGGUGUGC [ExTryptoA.Ch] | 651 | 681 | 549 | 688 | 500 |
| AAGUGUGUGGCGGCCGCCACUAGAAUCCAGUGAUGUUGGAGUUAUCAUAUAAUUGAUAAUCAACAUAGGACCGGGCCAUAUAGAA [Same State - Tryptophan B (Freestyle 6)] | 602 | 441 | 540 | 511 | 416 |
| AAAGAUCUUCUAGAAACUAGAAGAUCAAGAGAGGAUAUCCGAAUUCGGAGAAGGCUCACUAAGUGAUGUUUGGAGGGAAUCCCAA [AK1 SS FMN A] | 1250 | 805 | 1670 | 1290 | 1360 |
| AGUGAACGAGCGGCCGCCACUAAAUGAGUGAUGUUCGUGAGUAGUGCUGUUCUCAUGAUUGUUUUUAGGACCGGGUUCGAUGUUG [edcclmullin] | 937 | 739 | 762 | 576 | 662 |
| AAAAUUGCGGUCGAAAGAACUUCUUGCAUACGAGGACCGGUACGGCCGCCACUCGAGUCAAGUGAUGUUUGAUUUUCUAUUAUUA [JR_ExcTryptoA_Sub013] | 135 | 170 | 160 | 205 | 153 |
| UAUAUAUGAUGUGAUACCAGUGAAAAGCCAGUGAUGUUGGUAGAACUGGUAUAUAAAUAACACCCUUGGCAGCACAAUCACGUAU [whbob_Ex_Theo_B_sa96] | 155 | 134 | 147 | 191 | 146 |
| GAUGAUCGCGCGGCCGCCACUGGUCAGUGAUGUUGACAUUAAUGCGCCGAGUAGUAACGGCGCAGUAGGACCGGGCGCGAUGUAG [#13 K4 Tryptophan B Same State] | 151 | 139 | 139 | 198 | 110 |
| UGGAGUUGACGAAAAGUCAACUCCUGAGAUACCAGUGACGAAGGUCACCCUUGGCAGCUCACUGCUAGUGAUGUUGGAAGAUAAA [whbob_SS_Theo_A_w48] | 1390 | 276 | 913 | 2350 | 792 |
| AAUAACUAGUAUAUUUUUAAUAAUACAGAUACCAGUGAUAAUAGACACCCUUGGCAGCUGAUCGAGUGAUGUUCGUUUAUUUUAA [#11 K4 Theophylline A Same State] | 80.2 | 86.9 | 85 | 129 | 64.7 |
| GGAUCCUAGGCGGCCGCCACUCCAAUUGGCCGAAAGGCCUGAUACCGAGUGAUGUUCGGUUGGAGGAGGACCGGGCCUAGGAUCC [#2 Exclusion - Tryptophan B Attempt #2 (HarryS)] | 144 | 132 | 118 | 165 | 104 |
| UUUUUGGUUUAGAGUGAUGUUCCUUGUUUUCGAGGACCGGUACGGCCGCCACUCGAAAAGAAAAGAAAAGAAAAGAGUGAUGUUU [BDazzled - #1 SS Tryptophan A] | 342 | 252 | 362 | 311 | 258 |
